Source: patent US20100081799A1, “Chelating Agent” (priority 2006, published 2010)

Tests used:
[1] = test system: AR42J tumor bearing nude mice; assay: in vivo; conditions: mouse
Procedure: (§1) Animal experiments. Due to its high sst2-somatostatin receptor expression, the rat pancreatic tumor cell line AR42J was used as a tumor model.^55 To establish tumor growth, cells were detached from the surface of the culture flasks using 1 mM EDTA in PBS, centrifuged and re-suspended in serum-free culture medium (RPMI-1640, Biochrom, Berlin, Germany). Concentration of the cell suspension was 3.7×10^6 cells/100 μL serum. Nude mice (female, 6-8 weeks) were injected 100 μL of the cell suspension subcutaneously into the flank.
(§2) For biodistribution studies, mice were intravenously injected 38 μCi [^68Ga]19 (corresponding to 0.15 μg of peptide) in 100 μL PBS into the tail vein. Non-specific tissue accumulation of the radioligand was determined by coinjection of an excess of cold competitor (20 μg Tyr^3-octreotide/mouse). At different time points after radioligand injection (30 and 60 min p.i.) mice (n=5 per time point; n=3 for blocking study at 60 min p.i.) were sacrificed and dissected. The organs of interest were removed, weighed and counted in a […] (Wallach, Turku, Finland). Data are expressed as percent injected dose per gram tissue (% iD/g).

in vivo = assay: in vivo; design: species or system mice; conditions: female, nude, mouse, iv, 38 uCi, total radioactivity
Procedure: as §1, §2

[2] = blood concentration of the radioligand

Q: Which results are given for `CC(=NOCC(=O)N[C@H](Cc1ccccc1)C(=O)N[C@H]1CSSC[C@@H](C(=O)N[C@H](C(=O)O)[C@@H](C)O)NC(=O)[C@H]([C@@H](C)O)NC(=O)[C@H](CCCCN)NC(=O)[C@@H](Cc2c[nH]c3ccccc23)NC(=O)[C@H](Cc2ccc(O)cc2)NC1=O)c1ccc(C(C(=O)O)N2CCN(CC(=O)O)CCN(CC(=O)O)CCN(CC(=O)O)CC2)cc1` (stereo partly shown) [[^68Ga]19, metal not drawn]?
A: tumor/organ ratios (change) [1]: increasing tumor/organ ratios; tissue uptake at 0.5 h (in vivo; [2]): 2.37 ± 0.35 %ID/g; tissue uptake at 1 h (in vivo; [2]): 1.71 ± 0.17 %ID/g; tissue uptake at 0.5 h (in vivo; kidney accumulation): 20 ± 2.4 %ID/g; tissue uptake at 1 h (in vivo; kidney accumulation): 11.9 ± 1.9 %ID/g; tissue uptake at 0.5 h (in vivo; tumor accumulation): 7.73 ± 1.52 %ID/g; tissue uptake at 1 h (in vivo; tumor accumulation): 7.46 ± 1.3 %ID/g
